Columns and labels:
[1] = molecular target: T1, PTCH1 on NIH-3T3 / 3T3-Light2 cells (UniProt Q61115 1-1434, limits assumed); experiment: cell-based or functional assay
T1 sequence (looked up): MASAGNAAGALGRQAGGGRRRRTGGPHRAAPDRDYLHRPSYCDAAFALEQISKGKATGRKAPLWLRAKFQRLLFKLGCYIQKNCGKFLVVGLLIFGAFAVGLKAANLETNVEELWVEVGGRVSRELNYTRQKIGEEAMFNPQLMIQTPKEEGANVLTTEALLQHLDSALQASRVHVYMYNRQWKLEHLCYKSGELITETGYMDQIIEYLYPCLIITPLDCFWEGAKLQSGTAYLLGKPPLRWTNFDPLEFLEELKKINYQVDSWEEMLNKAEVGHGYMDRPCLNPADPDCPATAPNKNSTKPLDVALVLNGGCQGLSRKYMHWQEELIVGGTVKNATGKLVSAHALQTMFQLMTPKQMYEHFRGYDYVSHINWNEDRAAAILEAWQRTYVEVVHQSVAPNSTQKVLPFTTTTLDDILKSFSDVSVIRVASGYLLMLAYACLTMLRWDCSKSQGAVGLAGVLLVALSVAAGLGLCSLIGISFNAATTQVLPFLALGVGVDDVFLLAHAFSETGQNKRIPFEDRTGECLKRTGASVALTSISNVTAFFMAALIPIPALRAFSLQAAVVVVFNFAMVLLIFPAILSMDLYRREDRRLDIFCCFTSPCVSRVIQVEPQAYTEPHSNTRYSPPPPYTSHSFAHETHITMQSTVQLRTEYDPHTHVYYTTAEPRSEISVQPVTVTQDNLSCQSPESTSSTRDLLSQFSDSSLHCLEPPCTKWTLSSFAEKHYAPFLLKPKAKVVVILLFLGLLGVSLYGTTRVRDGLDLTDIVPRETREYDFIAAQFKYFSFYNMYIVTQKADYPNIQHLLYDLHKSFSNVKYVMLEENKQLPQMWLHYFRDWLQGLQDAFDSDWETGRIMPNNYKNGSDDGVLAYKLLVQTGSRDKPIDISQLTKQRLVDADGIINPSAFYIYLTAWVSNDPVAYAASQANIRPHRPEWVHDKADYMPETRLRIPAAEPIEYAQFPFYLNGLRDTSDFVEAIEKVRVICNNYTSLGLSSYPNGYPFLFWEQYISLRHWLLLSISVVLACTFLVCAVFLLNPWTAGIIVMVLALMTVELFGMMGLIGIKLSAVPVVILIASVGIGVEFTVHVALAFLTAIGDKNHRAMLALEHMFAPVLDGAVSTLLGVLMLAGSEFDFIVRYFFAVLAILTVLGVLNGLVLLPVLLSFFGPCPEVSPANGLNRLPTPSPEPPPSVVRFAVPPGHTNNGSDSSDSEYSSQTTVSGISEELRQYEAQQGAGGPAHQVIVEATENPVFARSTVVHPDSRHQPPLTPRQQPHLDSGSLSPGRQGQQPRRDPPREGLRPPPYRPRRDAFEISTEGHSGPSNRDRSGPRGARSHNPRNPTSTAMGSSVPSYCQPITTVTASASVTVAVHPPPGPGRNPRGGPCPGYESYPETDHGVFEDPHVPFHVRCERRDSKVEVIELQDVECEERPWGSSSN

[2] = molecular target: T2, Ptch1-C-NNQ (Ptch1-C with D499N, D500N, E1081Q) (mouse, UniProt Q61115 1-618; Q61115 712-1173); experiment: two-color staining of yeast cells expressing the variants
T2 construct: range 1-618;range 712-1173; also called PTCH1-NNQ; NNQ variant; not shown: 1D4 tag
T2 sequence (looked up): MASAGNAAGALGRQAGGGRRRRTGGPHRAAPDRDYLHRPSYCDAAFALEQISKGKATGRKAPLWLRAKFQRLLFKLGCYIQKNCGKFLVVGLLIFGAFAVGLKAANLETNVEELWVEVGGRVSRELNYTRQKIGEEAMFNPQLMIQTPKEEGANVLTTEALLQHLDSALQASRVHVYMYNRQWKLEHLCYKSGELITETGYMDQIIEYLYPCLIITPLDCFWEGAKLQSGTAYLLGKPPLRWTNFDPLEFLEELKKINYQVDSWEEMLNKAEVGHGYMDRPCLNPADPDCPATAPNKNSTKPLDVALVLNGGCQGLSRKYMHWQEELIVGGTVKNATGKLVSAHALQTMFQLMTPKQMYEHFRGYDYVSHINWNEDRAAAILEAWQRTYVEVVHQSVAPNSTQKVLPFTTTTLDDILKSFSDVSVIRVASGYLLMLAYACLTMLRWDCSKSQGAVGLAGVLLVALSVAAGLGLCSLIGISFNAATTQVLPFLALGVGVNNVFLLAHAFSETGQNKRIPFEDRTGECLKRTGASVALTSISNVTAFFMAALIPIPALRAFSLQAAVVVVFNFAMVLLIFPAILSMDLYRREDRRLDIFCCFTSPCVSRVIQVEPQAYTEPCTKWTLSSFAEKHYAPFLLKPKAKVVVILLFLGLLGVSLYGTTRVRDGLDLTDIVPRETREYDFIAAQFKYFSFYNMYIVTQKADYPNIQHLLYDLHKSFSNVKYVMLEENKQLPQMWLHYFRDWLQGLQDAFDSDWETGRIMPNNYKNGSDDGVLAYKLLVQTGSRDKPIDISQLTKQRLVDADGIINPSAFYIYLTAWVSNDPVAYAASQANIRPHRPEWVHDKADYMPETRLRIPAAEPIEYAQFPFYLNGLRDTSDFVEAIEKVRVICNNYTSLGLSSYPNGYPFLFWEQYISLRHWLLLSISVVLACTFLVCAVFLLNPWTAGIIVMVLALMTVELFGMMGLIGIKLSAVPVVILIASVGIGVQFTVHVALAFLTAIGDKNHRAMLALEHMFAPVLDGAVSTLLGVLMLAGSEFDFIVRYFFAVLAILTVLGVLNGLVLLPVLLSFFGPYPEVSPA

[3] = molecular target: T3, Human PTCH1 on HEPM cells (human, UniProt Q13635 1-1447); experiment: cell-based or functional assay
T3 sequence (looked up): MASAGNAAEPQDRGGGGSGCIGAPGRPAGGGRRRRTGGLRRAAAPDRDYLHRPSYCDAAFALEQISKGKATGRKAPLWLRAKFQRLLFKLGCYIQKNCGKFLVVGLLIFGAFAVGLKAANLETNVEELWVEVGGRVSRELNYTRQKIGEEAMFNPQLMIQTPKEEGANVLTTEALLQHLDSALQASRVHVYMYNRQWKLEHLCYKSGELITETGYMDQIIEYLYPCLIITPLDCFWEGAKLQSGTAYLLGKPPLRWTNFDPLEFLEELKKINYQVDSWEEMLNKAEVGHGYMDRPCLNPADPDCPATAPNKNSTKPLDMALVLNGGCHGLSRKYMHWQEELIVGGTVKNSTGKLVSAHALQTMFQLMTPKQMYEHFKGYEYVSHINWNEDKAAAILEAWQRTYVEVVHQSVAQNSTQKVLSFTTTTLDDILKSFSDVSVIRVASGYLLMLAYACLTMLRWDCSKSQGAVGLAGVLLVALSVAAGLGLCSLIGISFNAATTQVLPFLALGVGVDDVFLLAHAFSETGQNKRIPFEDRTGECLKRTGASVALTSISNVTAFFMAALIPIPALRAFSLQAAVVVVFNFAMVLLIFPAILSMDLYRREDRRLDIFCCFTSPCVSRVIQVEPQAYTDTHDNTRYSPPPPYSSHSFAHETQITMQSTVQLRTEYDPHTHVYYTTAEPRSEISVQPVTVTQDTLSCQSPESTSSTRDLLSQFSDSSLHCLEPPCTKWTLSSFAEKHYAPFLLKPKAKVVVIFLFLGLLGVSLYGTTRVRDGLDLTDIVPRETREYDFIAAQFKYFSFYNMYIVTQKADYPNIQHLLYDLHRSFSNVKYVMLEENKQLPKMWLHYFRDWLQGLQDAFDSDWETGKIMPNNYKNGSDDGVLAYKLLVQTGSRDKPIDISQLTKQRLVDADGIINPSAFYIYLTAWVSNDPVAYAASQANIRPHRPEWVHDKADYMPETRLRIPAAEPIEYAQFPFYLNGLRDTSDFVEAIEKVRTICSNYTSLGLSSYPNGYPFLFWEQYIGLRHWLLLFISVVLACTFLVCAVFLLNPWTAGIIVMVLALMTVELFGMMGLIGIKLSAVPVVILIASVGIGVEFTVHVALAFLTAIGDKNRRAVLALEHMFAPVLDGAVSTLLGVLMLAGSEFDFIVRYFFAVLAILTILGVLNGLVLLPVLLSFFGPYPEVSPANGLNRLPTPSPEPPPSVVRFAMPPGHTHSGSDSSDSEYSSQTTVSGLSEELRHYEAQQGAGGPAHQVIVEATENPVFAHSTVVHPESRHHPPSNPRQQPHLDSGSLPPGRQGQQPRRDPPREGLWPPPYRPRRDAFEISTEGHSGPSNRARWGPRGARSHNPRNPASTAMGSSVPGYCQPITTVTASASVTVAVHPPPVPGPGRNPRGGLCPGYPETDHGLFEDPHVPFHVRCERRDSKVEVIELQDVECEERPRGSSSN

Work on ShhNp (ligand) yielded an EC50, Gli-luciferase assay in NIH-3T3 cells [1] of 1.4 nM.

B1: T23 nanobody (VHH)
VHH: QVQLQESGGGLVQAGGSLRLSCAASGNIFAYYIMGWYRQAPGKERELVATIDIGGNTNYADSVKGRFTISRDNAKNTVYLQMNSLKPEDTAVYYCAVQAVPYRYRRYWGQGTQVTVSS
notes: also called 23T
B1: binds [2].

B2: Nanobody clone 23 (VHH)
VHH: QVQLQESGGGLVQAGGSLRLSCAASGNIFAYYIMGWYRQAPGKERELVAGIDIGGNTNYADSVKGRFTISRDNAKNTVYLQMNSLKPEDTAVYYCAVQAVPYRYHGYWGQGTQVTVSS
notes: Initial clone from the synthetic yeast display library; also called Nb23; NB23
B2: binds [2].

B3: TI23 nanobody (VHH)
VHH: QVQLQESGGGLVQAGGSLRLSCAASGNIFAYYIMGWYRQAPGKERELVATIDIGGNTNYADSVKGRFTISRDNAKNNVYLQMNSLKPEDTAVYYCAVQAVPIRYRRYWGQGTQVTVSS
With B3 the “EC50, Gli-dependent luciferase reporter in 3T3 cells” value [1] was 8.6 nM, the “EC50, Gli-luciferase assay in NIH-3T3 cells” value [1] was 6.9 nM and the “maximum response relative to ShhNp, Gli-luciferase assay” value [1] was about 75%. For the same molecule, the “EC50, transcription of GLI1 in HEPM cells (qPCR)” value [3] was 16 nM and the “EC50, transcription of PTCH1 in HEPM cells (qPCR)” value [3] was 18.5 nM.

Source: patent publication US20230391861A1 (Stanford University, published 2023)
